Patent publication US11702475B2, “Cysteine engineered fibronectin type III domain binding molecules” (Janssen Biotech, Inc., priority 2013, dated 2023)
Where a chain is given by its changes, count along the chain named. In names and notes the source's numbering stands. Several values for one entry are separate records, joined by “and”; a condition that tells them apart may be missing. Equal entries are not always repeated. Where two headings read alike, the source gives them in different places.

B1: WT: Tencon (SEQ ID NO: 265) cysteine variant conjugated to VC-MMAF as a negative control (conjugate)
chain: LPAPKNLVVSEVTEDSLRLSWTAPDAAFDSFLIQYQESEKVGEAINLTVPGSERSYDLTGLKPGTEYTVSIYGVKGGHRSNPLSAEFTTGGHHHHHHC
modifications: VC-MMAF conjugated via cysteine; Tencon FN3 scaffold
B2: N6C: cysteine variant of P54AR4-83v2 (printed SEQ ID NOS: 210 and 248); NEM and VC-MMAF conjugates (conjugate)
chain: MLPAPKCLVVSEVTEDSARLSWDDPWAFYESFLIQYQESEKVGEAIVLTVPGSERSYDLTGLKPGTEYTVSIYGVHNVYKDTNMRGLPLSAIFTT
modifications: NEM or vcMMAF conjugate; EGFR binding FN3 domain
notes: NEM and VC-MMAF conjugates
B3: S10C: cysteine variant of P54AR4-83v2 (SEQ ID NOS: 190 and 228); NEM and VC-MMAF conjugates (conjugate)
chain: B2 chain with C7N, S11C
modifications: NEM or vcMMAF conjugate; EGFR binding FN3 domain
notes: NEM and VC-MMAF conjugates
B4: E14C: cysteine variant of P54AR4-83v2 (SEQ ID NOS: 192 and 230); NEM and VC-MMAF conjugates (conjugate)
chain: B2 chain with C7N, E15C
modifications: NEM or vcMMAF conjugate; EGFR binding FN3 domain
notes: NEM and VC-MMAF conjugates
B5: T93C: cysteine variant of P54AR4-83v2 (SEQ ID NOS: 216 and 254); NEM and VC-MMAF conjugates (conjugate)
chain: B2 chain with C7N, T94C
modifications: NEM or vcMMAF conjugate; EGFR binding FN3 domain
notes: NEM and VC-MMAF conjugates
B6: V8C: cysteine variant of P54AR4-83v2 (SEQ ID NOS: 189 and 227); NEM and VC-MMAF conjugates (conjugate)
chain: B2 chain with C7N, V9C
modifications: NEM or vcMMAF conjugate; EGFR binding FN3 domain
notes: NEM and VC-MMAF conjugates
B7: E53C: cysteine variant of P54AR4-83v2 (SEQ ID NOS: 204 and 242); NEM and VC-MMAF conjugates (conjugate)
chain: B2 chain with C7N, E54C
modifications: NEM or vcMMAF conjugate; EGFR binding FN3 domain
notes: NEM and VC-MMAF conjugates
B8: E11C: cysteine variant of P54AR4-83v2 (SEQ ID NOS: 191 and 229); NEM and VC-MMAF conjugates (conjugate)
chain: B2 chain with C7N, E12C
modifications: NEM or vcMMAF conjugate; EGFR binding FN3 domain
notes: NEM and VC-MMAF conjugates
B9: V9C (conjugate)
chain: LPAPKNLVCSEVTEDSARLSWDDPWAFYESFLIQYQESEKVGEAIVLTVPGSERSYDLTGLKPGTEYTVSIYGVHNVYKDTNMRGLPLSAIFTT
modifications: left off: small tags and cut ends
B10: T13C (conjugate)
chain: B9 chain with C9V, T13C
modifications: left off: small tags and cut ends
B11: P50C (conjugate)
chain: B9 chain with C9V, P50C
modifications: left off: small tags and cut ends
B12: V49C (conjugate)
chain: B9 chain with C9V, V49C
modifications: left off: small tags and cut ends
B13: P63C (conjugate)
chain: B9 chain with C9V, P63C
modifications: left off: small tags and cut ends
B14: E39C (conjugate)
chain: B9 chain with C9V, E39C
modifications: left off: small tags and cut ends
B15: E29C (conjugate)
chain: B9 chain with C9V, E29C
modifications: left off: small tags and cut ends
B16: R18C (conjugate)
chain: B9 chain with C9V, R18C
modifications: left off: small tags and cut ends
B17: G42C (conjugate)
chain: B9 chain with C9V, G42C
modifications: left off: small tags and cut ends
B18: V12C (conjugate)
chain: B9 chain with C9V, V12C
modifications: left off: small tags and cut ends
B19: G51C (conjugate)
chain: B9 chain with C9V, G51C
modifications: left off: small tags and cut ends
B20: 83v2His6-cys: P54AR4-83v2 parent with C-terminal cysteine (SEQ ID NOs: 217 and 255); NEM and vcMMAF conjugates (conjugate)
chain: MLPAPKNLVVSEVTEDSARLSWDDPWAFYESFLIQYQESEKVGEAIVLTVPGSERSYDLTGLKPGTEYTVSIYGVHNVYKDTNMRGLPLSAIFTTGGHHHHHHC
modifications: His6 tag, C-terminal Cys; NEM or vcMMAF conjugate; EGFR binding FN3 domain
notes: NEM and vcMMAF conjugates

Columns and labels:
[1] = tested on: EGFR-overexpressing human tumor cell line H1573; assay: Cytotoxicity assay in H1573 cells; type: cell-based; details: for potency relative to the parent conjugate (in words): VC-MMAF conjugates
Description: Cell killing was assessed by measuring viability of the EGFR-overexpressing human tumor cell line H1573 following exposure to the cysteine variant-cytotoxin conjugates. Cells were plated in black-well, clear bottomed, tissue culture-treated plates (Falcon 353219) at 7000/well in 100 μL/well of phenol red free RPMI media (Gibco 11835-030) with 5% fetal bovine serum (Gibco). Cells were allowed to attach overnight at 37° C. in a humidified 5% CO2 atmosphere. Medium was aspirated from 96-well plate and cells were treated with 50 uL of fresh media and 50 uL of 2× inhibitor made up in fresh media. Cell viability was determined by an endpoint assay with Cell TiterGlo (Promega) at 70 hours. IC50 values were determined by fitting data to the equation for a sigmoidal dose response with variable slope using GraphPad Prism 5 (GraphPad Software). Table 11 reports IC50 values obtained from analysis of the CellTiter Glo data.
Conjugates consisting of ECB147 cysteine variants, 83v2-cys, or Tencon-cys linked to a cytotoxic tubulin inhibitor from the auristatin family (FIG. 2) were tested for target-dependent cytotoxicity in cancer cells. The inhibitor was linked to the cysteine-containing protein via a non-cleavable PEG4 linker or an enzyme-cleavable valine-citrulline or valine-lysine linker. Cell killing was assessed by measuring viability of the EGFR-overexpressing human tumor cell lines H1573 and A431 as well as the EGFR-negative tumor cell line MDA-MB-435 following exposure to the protein-cytotoxin conjugates using the procedure described in Example 4.

[2] = Analytical size exclusion chromatography (percent monomer); type: physicochemical; details: NEM-conjugated cysteine variants; SEC, Abs280 monomer region 5.5-6 minutes vs oligomer region 4-5.3 minutes
Description: Size exclusion chromatography was used to determine the aggregation state of the FN3 domains binding EGFR. Aliquots (10 μL) of each purified FN3 domain were injected onto a Superdex 75 5/150 column (GE Healthcare) at a flow rate of 0.3 mL/min in a mobile phase of PBS pH 7.4. Elution from the column was monitored by absorbance at 280 nm.
The percent monomer for each protein was determined by integrating the Abs280 signal and comparing the peak in the monomer region (5.5-6 minutes) to the peaks in the oligomer region (4-5.3 minutes).

[3] = Thermal stability of cysteine-NEM conjugates by DSC; type: physicochemical; details: for First Scan Tm: DSC 25-100 °C, 1 °C per minute; for Second Scan Tm: second identical scan
Description: The thermal stability of cysteine-NEM conjugates was assessed by differential scanning calorimetry (DSC). The only the conjugates tested were those determined to express at high levels, conjugate efficiently, and retain EGFR binding. Additionally, cysteine variants within the BC and FG loops were excluded. Stability data was generated by heating a 400 μL aliquot of the variant from 25° C. to 100° C. at a scan rate of 1° C. per minute in a VP-DSC instrument (MicroCal). A second identical scan was completed on the sample in order to assess the reversibility of thermal folding/unfolding. Data was fitted to a 2-state unfolding model in order to calculate the melting temperature (Table 10).

[4] = cysteine variants conjugated to VC-MMAF, Cell TiterGlo at 70 hours, read-out: IC50

Molecule	IC50 [1, 4]	Percent monomer [2]	potency relative to the parent conjugate (in words) [1]	First Scan Tm [3] [°C]	Second Scan Tm [3] [°C]	IC50 ([1]; vcMMAF conjugate, read-out: average IC50 of two replicates) [nM]
B1	146 nM and 166 nM	–	–	–	–	–
B2	0.16 nM	94%	over two times more potent than the parent	71	70	–
B3	0.43 nM	80%	–	68	68	–
B4	0.34 nM	96%	–	70	71	–
B5	0.2 nM	100%	over two times more potent than the parent	69	69	–
B6	0.35 nM	91%	–	69	69	–
B7	0.09 nM	97%	over two times more potent than the parent	76	75	–
B8	0.94 nM	100%	–	71	72	–
B9	–	double peak	–	46	46	–
B10	–	82%	–	63	63	–
B11	–	100%	–	63	65	–
B12	–	88%	–	54	55	–
B13	–	92%	–	60	62	–
B14	–	100%	–	67	69	–
B15	–	85%	–	63	66	–
B16	–	93%	–	62	62	–
B17	–	87%	–	65	67	–
B18	–	66%	–	58	58	–
B19	–	96%	–	61	61	–
B20	0.61 nM and 0.79 nM	97%	–	71	71	0.7
